The target of the assay is T1, lexA-bicoid (UniProt P09081 2-160).
T1 construct: also called nonspecific bait; not shown: LexA part of the two-hybrid bait
T1 sequence (looked up): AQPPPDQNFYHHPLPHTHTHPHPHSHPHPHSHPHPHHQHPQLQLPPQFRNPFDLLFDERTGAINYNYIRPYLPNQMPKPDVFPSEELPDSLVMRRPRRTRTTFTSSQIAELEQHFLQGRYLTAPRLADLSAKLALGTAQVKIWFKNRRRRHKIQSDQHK
Briefly: yeast two-hybrid (interaction trap), retransformation with control bait. The source says: The human minor vault protein p193 amino acid sequence and the nucleotide sequence encoding human minor vault protein p193 were elucidated as follows. First, human vault protein p193 was cloned using an interaction trap, two-hybrid system according to techniques known to those with skill in the art. See, for example, Golemis, et al., *Current Protocols in Mol. Biol.* 20.1.1–20.35 John Willey & Sons, 1997, incorporated by reference in its entirety. In summary, rat major vault protein, GenBank accession number U09870, having the 67 amino acids at the amino-terminal truncated was used as bait against a HeLa acid fusion cDNA library obtained from Roger Brent, Boston, Mass., USA to search for proteins that interacted with rat major vault protein. The interacting proteins were identified by their ability to give rise to blue colonies on media containing galactose and X-gal, a color indicator substrate. The specificity of the interaction between the identified proteins and the rat major vault protein was verified by retransformation of the identified proteins with specific, rat major vault protein and nonspecific (lexA-bicoid) bait cDNAs. This technique identified the cDNA encoding the 193 kDa minor vault protein, SEQ ID NO: 1, by its interaction with the rat major vault protein.

B1: human minor vault protein p193 (other)
chain: VCTQHWQDAVPWTELLSLQTEDGFWKLTPELGLILNLNTNGLHSFLKQKGIQSLGVKGRECLLDLIATMLVLQFIRTRLEKEGIVFKSLMKMDDPSISRNIPWAFEAIKQASEWVRRTEGQYPSICPRLELGNDWDSATKQLLGLQPISTVSPLHRVLHYSQG
notes: In the two-hybrid screen, p193 was a clone from a HeLa acid fusion cDNA library; In the western blots, immunofluorescence and immunoprecipitation, the form of p193 is not described; also called 193 kDa minor vault protein; human vault protein p193
For the molecule B1, the binding result is listed as “no binding”.

The record behind these values is patent US6555347 (University of California, dated 2003).
